Values of other authors, collected in publication PMC4321873.

Target: Glu286 (UniProt position 286, FFGHPEVYIIV)
Experiment: kinetics

In the case of “Cytochrome c oxidase (aa3-type), subunit I (Rhodobacter sphaeroides)”, the pKa is listed as “∼9.4”.
